Data on one molecule can be found in article doi:10.1101/2022.06.14.496144, “Crystal structure and functional peculiarities of a primordial Orange Carotenoid Protein (OCPX)” (bioRxiv, 2022).

For the test, the target named is T1, SynOCP1 lacking the N-terminal extension (ΔNTE-SynOCP1) (Synechocystis sp. PCC 6803, UniProt P74102 13-317).
T1 construct: Orange Carotenoid Protein of Synechocystis sp; PCC 6803 (Uniprot P74102) lacking residues M1-F12 from the N-terminus; also called SynOCP1 ΔNTE mutant; source: E. coli C41(DE3) synthesizing echinenone, purified (subtractive IMAC, SEC)
T1 sequence (looked up): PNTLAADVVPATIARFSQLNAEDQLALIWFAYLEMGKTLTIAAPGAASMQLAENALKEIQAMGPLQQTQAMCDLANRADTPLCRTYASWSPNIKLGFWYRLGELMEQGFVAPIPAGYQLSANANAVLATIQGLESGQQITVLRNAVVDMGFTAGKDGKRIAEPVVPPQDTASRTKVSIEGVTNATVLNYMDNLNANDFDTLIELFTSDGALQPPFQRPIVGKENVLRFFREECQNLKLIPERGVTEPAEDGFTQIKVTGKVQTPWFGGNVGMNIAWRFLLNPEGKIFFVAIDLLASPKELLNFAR
Briefly: SEC; spectrochromatography on Superdex 200 Increase 5/150 with diode-array detection; ΔNTE-OCP 20 μM mixed with FRP 40 μM; 20 mM Tris-HCl pH 7.6, 150 mM NaCl; absorbance spectrum ('oranging') read in the same runs. To be noted: both partners purified. On the technique in general: In gel filtration, larger molecules generally elute earlier.

B1: Fluorescence Recovery Protein from Synechocystis (SynFRP) (natural protein, UniProt P74103 1-109, looked up)
chain: MLQTAEAPWSQAETQSAHALFRKAYQRELDGLLATVQAQASQITQIDDLWKLHDFLSAKRHEIDGKYDDRQSVIIFVFAQLLKEGLVQAEELTFLAADKQSKIKALARL
notes: Fluorescence Recovery Protein of Synechocystis (Uniprot P74103); source: E. coli C41(DE3), purified (subtractive IMAC, SEC)
For the molecule B1, the binding result is given as “binds”.
